In test [1] the target is Melanocortin-1 receptor (MC1R), human recombinant, in CHO-K1 cells (human) (UniProt Q01726).
In another test the test system is other MCRs. On the set-up: method as in PMID 12591094, PMID 12576087. Particulars: MCRs besides MC1R; cited from earlier work.

Melanocortin-1 receptor (MC1R), human recombinant, in CHO-K1 cells (human), sequence (Q01726 whole entry): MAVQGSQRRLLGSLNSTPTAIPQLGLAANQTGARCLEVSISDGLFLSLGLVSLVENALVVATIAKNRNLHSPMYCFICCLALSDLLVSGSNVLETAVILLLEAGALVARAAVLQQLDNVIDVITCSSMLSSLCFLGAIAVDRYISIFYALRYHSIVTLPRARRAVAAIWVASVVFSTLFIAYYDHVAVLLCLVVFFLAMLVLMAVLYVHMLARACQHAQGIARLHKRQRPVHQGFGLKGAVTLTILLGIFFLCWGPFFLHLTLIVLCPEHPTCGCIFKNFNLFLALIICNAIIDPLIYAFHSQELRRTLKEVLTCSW

Consider “NDP-alpha-MSH [Nle^4, D-Phe^7] (peptide)”, for which the EC50 of MC1R activation (cAMP production, recombinant CHO-MC1R cell line; control compound) in test [1] was 0.071 nM.

On to “Ac-Ser-Tyr-Ser-Met-Glu-His-Phe-Arg-Trp- Gly-Lys-Pro-Val-NH2 [alpha-MSH]”, for which the “Potency among other MCRs” value in the test with other MCRs is at most 5 nM.
